Measurements taken from US5578310A, “Topical bioadhesive ointment compositions and their use in wound healing” (Berlex Laboratories Inc., priority 1994, dated 1996).

Test: In vivo uptake and tissue distribution of 125I-TGFα from TJ-TGFα formulation on wounded cheek pouch
Design: species or system Golden Syrian hamsters
Conditions: for Distribution of 125I-TGFα in the Tissues: Skin: 25 cm^2 skin on back; for Distribution of 125I-TGFα in the Tissues: Blood / Distribution of 125I-TGFα in the Tissues: Cecum / Distribution of 125I-TGFα in the Tissues: Colon / Distribution of 125I-TGFα in the Tissues: Esophagus / Distribution of 125I-TGFα in the Tissues: Kidney / Distribution of 125I-TGFα in the Tissues: Liver / Distribution of 125I-TGFα in the Tissues: Small Intestine / Distribution of 125I-TGFα in the Tissues: Stomach / Distribution of 125I-TGFα in the Tissues: Submaxillary Gland / Distribution of 125I-TGFα in the Tissues: Thyroid / Distribution of 125I-TGFα in the Tissues: Tongue: cheek pouch wound; for Distribution of 125I-TGFα in the Tissues: Cheek Pouch: right-hand side cheek pouch (application site)
Excerpt: The TGFα-containing ointment composition of Example 2 (TJ-TGFα formulation) was subjected, both in vitro and in vivo, to evaluation to meet the therapeutical requirements for oral mucositis. The in vitro evaluation included TGFα release and extraction from the composition, autoclave sterilizability and the bioactivity and stability of TGFα in the composition. The in vivo evaluation included TGFα uptake and tissue distribution of absorbed TGFα from hamster's cheek pouch.
B. The in vivo uptake of TGFα from the TJ-TGFα formulation was determined in Golden Syrian hamsters, female, approximately 150 g using an ^125 I-TGFα formulation (specific activity-45 μci/μg), the hamster's cheek pouch having a mechanically created wound. A pharmacokinetic study of tissue distribution of TGFα absorbed by the hamsters was also conducted. The methods employed were as follows:
1. Fast hamsters overnight.
2. Anesthetize hamsters by I.M. injection of ketamine HCl.
3. Create a 2 mm diameter wound on the right-hand side of hamster's cheek pouch by a biopsy punch.
4. Following the removal of the debridement and blood clot, administer 20 μl TJ-TGFα formulation containing 26 μci 125I-TGFα onto the wound area by a Gilson Microman.
5. Keep the hamsters in their cages and give no water or food during the course of 6 hours study.
6. Select three hamsters at time 15 minutes, 30 minutes, 1 hour, 2 hours, 4 hours and 6 hours and select one hamster at 24 hours for TGFα uptake and tissue distribution study.
7. Punch a needle into the hamster's heart and withdrawn 1 ml blood by a 5 ml syringe.
8. Sacrifice hamster by inhalation of an overdose of carbon dioxide vapor from dry ice in a closed chamber.
9. Immediately after sacrificing, remove the liver, kidney, thyroid, submaxillary gland, esophagus, stomach, small intestine, cecum, colon, 25 cm^2 skin on back, tongue and right-hand side of cheek pouch.
11. Count the CPM of ^125 I-TGFα that distributed in the hamster's tissue and GI contents.

In the case of “^125 I-TGFα: 125I-labelled TGFα (specific activity 45 μci/μg) administered in TJ-TGFα formulation onto the hamster cheek pouch wound”, the “Distribution of 125I-TGFα in the Tissues: Skin” value (“Distribution of 125I-TGFα … Skin” below) (15 min.) is reported as 0.04%, the “Distribution of 125I-TGFα in the Tissues: Blood” value (from here on “Distribution … Blood”) (15 min.) is reported as 0.01% and the “Distribution of 125I-TGFα in the Tissues: Cecum” value (shortened to “Distribution … Cecum”) (15 min.) is reported as 0.303%. The “Distribution of 125I-TGFα in the Tissues: Colon” value (“Distribution … Colon” below) (15 min.) was 0.01%, the “Distribution of 125I-TGFα in the Tissues: Esophagus” value (from here on “Distribution … Esophagus”) (15 min.) was 0.001% and the “Distribution of 125I-TGFα in the Tissues: Kidney” value (shortened to “Distribution … Kidney”) (15 min.) was 0.02%. The “Distribution of 125I-TGFα in the Tissues: Liver” value (“Distribution … Liver” for short) (15 min.) was 0.03%, the “Distribution of 125I-TGFα in the Tissues: Small Intestine” value (shortened to “Distribution … Small Intestine”) (15 min.) was 0.01% and the “Distribution of 125I-TGFα in the Tissues: Stomach” value (from here on “Distribution … Stomach”) (15 min.) was 0.01%. For the same substance, the “Distribution of 125I-TGFα in the Tissues: Submaxillary Gland” value (“Distribution … Submaxillary Gland” for short) (15 min.) was 0.02%, the “Distribution of 125I-TGFα in the Tissues: Thyroid” value (“Distribution … Thyroid” below) (15 min.) was 0.005% and the “Distribution of 125I-TGFα in the Tissues: Tongue” value (“Distribution … Tongue” below) (15 min.) was 0.85%. The “Distribution of 125I-TGFα in the Tissues: Cheek Pouch” value (shortened to “Distribution … Cheek Pouch”) (15 min.) was 76%, the “Distribution of 125I-TGFα … Skin” value (0.5 hrs.) was 0.06% and the “Distribution … Blood” value (0.5 hrs.) was 0.02%. The “Distribution … Cecum” value (0.5 hrs.) was 0.01%, the “Distribution … Colon” value (0.5 hrs.) was 0.02% and the “Distribution … Esophagus” value (0.5 hrs.) was 0.01%. The “Distribution … Kidney” value (0.5 hrs.) was 0.07%, the “Distribution … Liver” value (0.5 hrs.) was 0.07% and the “Distribution … Small Intestine” value (0.5 hrs.) was 0.05%. The “Distribution … Stomach” value (0.5 hrs.) was 0.03%, the “Distribution … Submaxillary Gland” value (0.5 hrs.) was 0.05% and the “Distribution … Thyroid” value (0.5 hrs.) was 0.02%. For the same substance, the “Distribution … Tongue” value (0.5 hrs.) was 3.13%, the “Distribution … Cheek Pouch” value (0.5 hrs.) was 30% and the “Distribution of 125I-TGFα … Skin” value (1 hr.) was 0.03%. The “Distribution … Blood” value (1 hr.) was 0.04%, the “Distribution … Cecum” value (1 hr.) was 0.02% and the “Distribution … Colon” value (1 hr.) was 0.04%. For the same substance, the “Distribution … Esophagus” value (1 hr.) was 0.01%, the “Distribution … Kidney” value (1 hr.) was 0.07% and the “Distribution … Liver” value (1 hr.) was 0.09%. The “Distribution … Small Intestine” value (1 hr.) was 0.04%, the “Distribution … Stomach” value (1 hr.) was 0.05% and the “Distribution … Submaxillary Gland” value (1 hr.) was 0.04%. For the same substance, the “Distribution … Thyroid” value (1 hr.) was 0.02%, the “Distribution … Tongue” value (1 hr.) was 4.82% and the “Distribution … Cheek Pouch” value (1 hr.) was 70%. The “Distribution of 125I-TGFα … Skin” value (2 hrs.) was 0.10%, the “Distribution … Blood” value (2 hrs.) was 0.05% and the “Distribution … Cecum” value (2 hrs.) was 0.06%. The “Distribution … Colon” value (2 hrs.) was 0.06%, the “Distribution … Esophagus” value (2 hrs.) was 0.01% and the “Distribution … Kidney” value (2 hrs.) was 0.14%. The “Distribution … Liver” value (2 hrs.) was 0.17%, the “Distribution … Small Intestine” value (2 hrs.) was 0.07% and the “Distribution … Stomach” value (2 hrs.) was 0.10%. For the same substance, the “Distribution … Submaxillary Gland” value (2 hrs.) was 0.20%, the “Distribution … Thyroid” value (2 hrs.) was 0.14% and the “Distribution … Tongue” value (2 hrs.) was 3.57%. For the same substance, the “Distribution … Cheek Pouch” value (2 hrs.) was 74%, the “Distribution of 125I-TGFα … Skin” value (4 hrs.) was 0.14% and the “Distribution … Blood” value (4 hrs.) was 0.13%. For the same substance, the “Distribution … Cecum” value (4 hrs.) was 0.04%, the “Distribution … Colon” value (4 hrs.) was 0.13% and the “Distribution … Esophagus” value (4 hrs.) was 0.26%. For the same substance, the “Distribution … Kidney” value (4 hrs.) was 0.23% and the “Distribution … Liver” value (4 hrs.) was 0.26%.
